Source: paper PMC5521178

Experiments:
Experiment in all cases: fluorescence polarisation
[1] = biological target: FITC-labeled full-length caspase-7 S30A/C186A (UniProt P55210)
[2] = biological target: FITC-labeled full-length caspase-7 C186A phosphorylated by autoactivated PAK2 (UniProt P55210)
[3] = biological target: FITC-labeled full-length caspase-7 C186A (UniProt P55210)

Substance: caspase-9 constitutive dimer C287A (from UniProt P55211 1-416) (enzyme)
- Kd [1]: 1.7 µM
- Kd [2]: > 27 µM
- Kd [3]: 1.8 µM
